Source: patent US8728749B2, “Detection of LCAT activity” (priority 2010, dated 2014)

Test system: not listed separately
Assay: Time course of LCAT activity in plasma from mice injected intravenously with rhLCAT
Assay type: in vivo, transgenic mice expressing human apoA-I
Settings: intravenous, 10 mg/kg (30×), plasma collected at 1 hour post-dose
Description: (§1) Two microliter aliquots of plasma were added to separate assay wells followed by 100 microliters of substrate (Example 2). The assay plate was incubated for 2 hours at 37° C. followed by quenching with COx (Example 2). The nmoles DHE ester formed in each sample was calculated by subtracting the average fluorescence of the blank wells from the fluorescence of each sample well to obtain net fluorescence. The average net fluorescence of sample wells at each rhLCAT level was then divided by the average net fluorescence of control wells and multiplied by the DHE per well, which was 6.25 nmoles, to yield the nmoles of DHE ester formed. The line represents the fit of the data by linear regression. The activity detected at 0 μg/ml rhLCAT (Y-intercept) is the activity of endogenous mouse LCAT in the plasma (FIG. 5).
The utility of the current invention to measure LCAT activity changes in vivo as a result of rhLCAT injection is shown in FIG. 6. Transgenic mice expressing human apoA-I (Jackson Laboratories) and maintained on chow diet were injected (intravenous) with rhLCAT in normal saline at doses of 1 mg/kg (3×), 3 mg/kg (10×) or 10 mg/kg (30×). Control animals were injected with saline alone. Plasma was prepared from blood samples collected at 0.1, 1, 5 and 24 hours following LCAT injection. […]

| Substance | increase in LCAT activity in plasma |
| --- | --- |
| rhLCAT: recombinant human LCAT isolated from culture medium of HEK293f cells expressing human LCAT | 11 fold |

Target: T1, rhLCAT (Homo sapiens, UniProt P04180)
T1 construct: made in house; host or cells: HEK293f cells, stably transfected with pcDNA3.1/Hygro carrying the LCAT insert from Origene pCMV6-XL4/LCAT
T1 sequence (P04180 25-440): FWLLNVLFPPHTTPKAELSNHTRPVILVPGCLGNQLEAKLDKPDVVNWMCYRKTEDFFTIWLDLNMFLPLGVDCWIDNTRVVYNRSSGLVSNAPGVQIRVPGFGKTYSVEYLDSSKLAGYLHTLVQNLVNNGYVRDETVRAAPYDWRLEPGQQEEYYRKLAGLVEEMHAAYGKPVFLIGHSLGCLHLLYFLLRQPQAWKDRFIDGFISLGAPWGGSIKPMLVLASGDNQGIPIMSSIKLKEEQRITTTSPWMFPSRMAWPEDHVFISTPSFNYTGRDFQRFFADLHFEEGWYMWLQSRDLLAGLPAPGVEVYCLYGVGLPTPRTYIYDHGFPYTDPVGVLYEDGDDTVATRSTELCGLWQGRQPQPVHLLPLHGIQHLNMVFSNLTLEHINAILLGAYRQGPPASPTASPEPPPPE
Assay: LCAT activating potential of LCAT-activating peptides in mHDL substrate (DHE fluorescence / cholesterol oxidase assay)
Assay type: biochemical
Settings: specific activity of rhLCAT with peptide/POPC/DHE substrate, 50 μM DHE, relative to SEQ ID NO: 1
Description: Recombinant human LCAT (rhLCAT), isolated from cells expressing human LCAT (Example 5), was diluted into phosphate buffer containing 5 mM β-mercaptoethanol and 60 μM bovine serum albumin to obtain rhLCAT concentrations that would deliver the indicated mass of rhLCAT to assay samples in a 5 μL volume. Substrate, prepared as in Example 1, was diluted to 62.5 μM DHE with phosphate buffer containing 5 mM β-mercaptoethanol and 60 μM bovine serum albumin. One hundred microliter volumes of the diluted substrate were added to individual wells of a black, polystyrene 96-well plate (Whatman 7701-2350) which had previously been loaded with 5 μL of rhLCAT. Blank and control wells were not loaded with rhLCAT. The plate was covered and incubated at 37° C. for one hour. The reaction was quenched by the addition of 25 μL phosphate buffer containing 2% Triton X-100 and 5 units/ml COx (Streptomyces sp.) to all wells except control wells, which received 2% Triton X-100 without COx. The plate was returned to the incubator for one hour, then equilibrated to 37° C. in the plate reader and scanned for DHE fluorescence. Percent fluorescence was calculated from the ratio of the average fluorescence of duplicate wells treated with COx to the average fluorescence of the control wells. The amount of fluorescence remaining after oxidation is directly proportional to the amount of DHE esterified by LCAT. The line represents the fit of the data by linear regression. (FIG. 4).
as §1
LCAT-activating peptides, which are produced by solid-phase synthesis (GenScript USA, Inc), are dissolved in methanol at 5 mM concentration. Three hundred and ninety seven microliters of 5 mM LAP and 357 microliters of a chloroform solution containing 25 mM POPC and 2.8 mM DHE are added to a glass vial. The solvents are evaporated by directing a gentle stream of inert gas (e.g. nitrogen) into the vial. Residual solvent is removed by high vacuum for 2 hours. The dried mixture is dispersed in 2 milliliters of phosphate buffer (150 mM NaCl, 50 mM sodium phosphate, 1 mM EDTA, pH 7.4) to obtain a final DHE concentration of 0.5 mM. The vial is flushed with inert gas and capped after buffer addition. The dispersion is obtained by vortexing and brief (10 to 30 seconds) sonication in a water bath sonicator. The substrate is protected from light and stored with inert gas in the capped vial at 2-8° C.
The LCAT activating potential of LAP is determined with the protocol described in Example 2 at a DHE concentration of 50 μM and with the rhLCAT concentrations indicated. A linear regression fit of nmoles DHE ester formed, calculated as in Example 3, versus rhLCAT in the sample yields the specific activity (nmol DHE ester/μg LCAT/hour) of rhLCAT with substrate. This protocol was used to compare and characterize the LCAT activating potential of amphipathic peptides with mean hydrophobicities and mean hydrophobic moments that were sufficient to enable the peptides to form stable micelle complexes with phosphatidylcholine and DHE (Table 3).

| RELATIVE ACTIVITY (Percent activity relative to SEQ ID: 1) | Substance |
| --- | --- |
| 15% | 8 (PVLDKFLELLEELFQKLKK) [compound 8] |
| 55% | 9 (EWLKAFLEKVLEKLKELF) [compound 9] |
| 43% | 10 (EWLKAFYEKVLEKLKELF) [compound 10] |
| 28% | 11 (DWLKAFYDKVFEKFKEFF) [compound 11] |
| 21% | 12 (EVLKNLLEKLLEKLKELF) [compound 12] |
| 0% | 13 (DLWQRLLELFNELLEKLKQALK) [compound 13] |
| 0% | 14 (DVFQALKELFAQLLEKWKQV) [compound 14] |

Continued, substance first:

| Substance | RELATIVE ACTIVITY (Percent activity relative to SEQ ID: 1) |
| --- | --- |
| 2 (PTLDLFRELLNELLEALKQKLK) [compound 2] | 94% |
| 3 (PSLDLFRELLNELLEALKQKLK) [compound 3] | 87% |
| 4 (PVLDLFRELLNELLQKLKK) [compound 4] | 86% |
| 5 (PTLDLFRELLNELLQKLKK) [compound 5] | 65% |
| 6 (PVLDLFRELLEELLQKLKK) [compound 6] | 65% |
| 7 (PVLDLFKELLEELFQKLKK) [compound 7] | 56% |
